Drawing on patent publication US20240270821A1, “GIP/GLP1/GCG TRI-RECEPTOR AGONISTS AND USES THEREOF” (priority 2023, published 2024), this text covers Relative cAMP EC50, cAMP Rel EC50, nM (in the presence of 1% HSA) and cAMP Rel EC50 (1% HSA) for 11 molecules.

Residue numbers refer to the chain shown, from its start.

Sequences and labels used below:
T1: human GIP receptor (human) (UniProt P48546)
T1 sequence (looked up): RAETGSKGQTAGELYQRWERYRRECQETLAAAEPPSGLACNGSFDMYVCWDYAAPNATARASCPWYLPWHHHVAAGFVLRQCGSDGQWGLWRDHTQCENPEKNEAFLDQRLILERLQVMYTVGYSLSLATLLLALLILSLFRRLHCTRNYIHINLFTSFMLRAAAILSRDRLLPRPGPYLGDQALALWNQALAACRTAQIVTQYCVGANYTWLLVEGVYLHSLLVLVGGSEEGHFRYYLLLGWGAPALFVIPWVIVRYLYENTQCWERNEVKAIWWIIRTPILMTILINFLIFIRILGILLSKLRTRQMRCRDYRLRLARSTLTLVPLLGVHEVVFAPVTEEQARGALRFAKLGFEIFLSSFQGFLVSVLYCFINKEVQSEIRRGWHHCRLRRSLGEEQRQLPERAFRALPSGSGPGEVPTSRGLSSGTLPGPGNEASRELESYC

B1: Example 104 (peptide)
chain: YXQGTFTSDFSXXLDKKAQXAFIEWLLEGGXSSGAPPPSGE
modifications: synthetic construct; SITE 2: note = 2-Aminoisobutyric Acid; SITE 12: note = L-ornithine; SITE 13: note = alpha-methyl-leucine; SITE 17: note = Lysine is chemically modified through conjugation of the epsilon-amino group of the Lysine side chain with (2-[2-(2-Amino-ethoxy)-ethoxy]-acetyl)-(gamma-Glu)
B2: Example 1088 (peptide)
chain: YXQGTFTSDXSQXLDKKAQXAFIEYLIAGGPSSGAPPPSGEEE
modifications: Aib, 4Pal, αMeL, Me4Pal, acylated K, C-terminal amide; synthetic construct; SITE 2: note = 2-Aminoisobutyric Acid; SITE 10: note = 3-(4-Pyridyl)-L-alanine; SITE 13: note = alpha-methyl-leucine; SITE 17: note = Lysine is chemically modified through conjugation of the epsilon-amino group of the Lysine side chain with D-Glutamic acid-(gamma-Glu)-CO-(CH2)16
B3: Example 1092 (peptide)
chain: B2 chain with K16X, G29X, A35E, E41S
modifications: non-natural residues, acylated Lys ((γGlu)2-C18 diacid), C-terminal amide; synthetic construct; SITE 2: note = 2-Aminoisobutyric Acid; SITE 10: note = 3-(4-Pyridyl)-L-alanine; SITE 13: note = alpha-methyl-leucine; SITE 16: note = L-ornithine; SITE 17: note = Lysine is chemically modified through conjugation of the epsilon-amino group of the Lysine side chain with (gamma-Gl)
B4: Example 1099 (peptide)
chain: B2 chain with K16X, Y25X, G29X, A35E, E41S
modifications: non-natural residues, AEEA-γGlu-diacid acylated Lys, C-terminal amide; synthetic construct; SITE 2: note = 2-Aminoisobutyric Acid; SITE 10: note = 3-(4-Pyridyl)-L-alanine; SITE 13: note = alpha-methyl-leucine; SITE 16: note = L-ornithine; SITE 17: note = Lysine is chemically modified through conjugation of the epsilon-amino group of the Lysine side chain with (2-[2-(2-
B5: Example 1096 (peptide)
chain: B2 chain with K16X, A28Q, G29X, A35E, E41S
modifications: non-natural residues; lipidated Lys AEEA-γGlu-C18 diacid; C-term amide; synthetic construct; SITE 2: note = 2-Aminoisobutyric Acid; SITE 10: note = 3-(4-Pyridyl)-L-alanine; SITE 13: note = alpha-methyl-leucine; SITE 16: note = L-ornithine; SITE 17: note = Lysine is chemically modified through conjugation of the epsilon-amino group of the Lysine side chain with (2-[2-(2-
B6: Example 1089 (peptide)
chain: B2 chain
modifications: non-natural residues; acylated Lys; C-terminal amide; synthetic construct; SITE 2: note = 2-Aminoisobutyric Acid; SITE 10: note = 3-(4-Pyridyl)-L-alanine; SITE 13: note = alpha-methyl-leucine; SITE 17: note = Lysine is chemically modified through conjugation of the epsilon-amino group of the Lysine side chain with (Glu)-(gamma-Glu)-CO-(CH2)16-CO2H; SIT
B7: Example 1095 (peptide)
chain: B2 chain with K16X, G29X, A35E, E41S
modifications: non-natural residues, C-terminal amide, acylated Lys with fatty diacid; synthetic construct; SITE 2: note = 2-Aminoisobutyric Acid; SITE 10: note = 3-(4-Pyridyl)-L-alanine; SITE 13: note = alpha-methyl-leucine; SITE 16: note = L-ornithine; SITE 17: note = Lysine is chemically modified through conjugation of the epsilon-amino group of the Lysine side chain with (2-[2-(2-
B8: Example 1094 (peptide)
chain: B2 chain with K16X, Y25X, G29X, A35E, E41S
modifications: non-natural residues (Aib, 4Pal, Orn, Me4Pal, αMeY); lipidated K; amide; synthetic construct; SITE 2: note = 2-Aminoisobutyric Acid; SITE 10: note = 3-(4-Pyridyl)-L-alanine; SITE 13: note = alpha-methyl-leucine; SITE 16: note = L-ornithine; SITE 17: note = Lysine is chemically modified through conjugation of the epsilon-amino group of the Lysine side chain with (gamma-Gl)
B9: Example 1091 (peptide)
chain: B2 chain with K16X, G29X, E41S
modifications: non-natural residues; acylated Lys C18 diacid; C-term amide; synthetic construct; SITE 2: note = 2-Aminoisobutyric Acid; SITE 10: note = 3-(4-Pyridyl)-L-alanine; SITE 13: note = alpha-methyl-leucine; SITE 16: note = L-ornithine; SITE 17: note = Lysine is chemically modified through conjugation of the epsilon-amino group of the Lysine side chain with (gamma-Gl)
B10: Example 1090 (peptide)
chain: B2 chain
modifications: acylated Lys, C-terminal amide, non-natural residues; synthetic construct; SITE 2: note = 2-Aminoisobutyric Acid; SITE 10: note = 3-(4-Pyridyl)-L-alanine; SITE 13: note = alpha-methyl-leucine; SITE 17: note = Lysine is chemically modified through conjugation of the epsilon-amino group of the Lysine side chain with (Glu)2-(gamma-Glu)-CO-(CH2)16-CO2H; SI
B11: Example 1101 (peptide)
chain: B2 chain with K16X, G29X, A35E, E41S
modifications: non-natural residues, γGlu-C18 diacid lysine acylation, C-terminal amide; synthetic construct; SITE 2: note = 2-Aminoisobutyric Acid; SITE 10: note = 3-(4-Pyridyl)-L-alanine; SITE 13: note = alpha-methyl-leucine; SITE 16: note = L-ornithine; SITE 17: note = Lysine is chemically modified through conjugation of the epsilon-amino group of the Lysine side chain with D-Glutami

Sequence of human glucagon receptor (human) (P47871 26-477): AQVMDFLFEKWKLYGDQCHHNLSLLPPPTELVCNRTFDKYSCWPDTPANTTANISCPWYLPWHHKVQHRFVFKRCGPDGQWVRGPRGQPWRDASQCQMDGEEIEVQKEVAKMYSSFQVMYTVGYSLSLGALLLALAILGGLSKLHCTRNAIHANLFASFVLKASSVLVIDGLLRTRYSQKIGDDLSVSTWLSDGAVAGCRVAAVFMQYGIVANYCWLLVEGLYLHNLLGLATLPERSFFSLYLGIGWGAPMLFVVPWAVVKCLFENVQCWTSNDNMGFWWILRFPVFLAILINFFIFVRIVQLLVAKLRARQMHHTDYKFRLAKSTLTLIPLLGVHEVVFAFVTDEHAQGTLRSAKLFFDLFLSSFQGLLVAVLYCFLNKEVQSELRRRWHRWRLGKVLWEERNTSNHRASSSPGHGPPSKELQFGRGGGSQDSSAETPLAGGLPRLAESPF

One experiment deals with hGLP-1R (Homo sapiens, UniProt P43220). Description: cell-based or functional assay.
Sequence of hGLP-1R (P43220 24-463): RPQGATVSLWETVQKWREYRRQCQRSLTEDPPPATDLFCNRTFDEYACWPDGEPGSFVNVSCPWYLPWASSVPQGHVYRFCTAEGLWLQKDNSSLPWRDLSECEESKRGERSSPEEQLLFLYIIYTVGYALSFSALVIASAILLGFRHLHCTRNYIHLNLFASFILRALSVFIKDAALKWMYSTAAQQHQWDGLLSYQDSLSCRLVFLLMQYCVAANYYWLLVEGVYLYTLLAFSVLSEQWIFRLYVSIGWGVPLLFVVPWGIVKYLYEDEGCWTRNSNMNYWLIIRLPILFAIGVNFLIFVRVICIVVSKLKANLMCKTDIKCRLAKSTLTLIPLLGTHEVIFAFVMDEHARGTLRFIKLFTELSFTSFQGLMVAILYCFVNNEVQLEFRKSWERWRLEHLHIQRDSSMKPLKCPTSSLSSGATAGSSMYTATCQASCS
B1: the Relative cAMP EC50 was determined as 3.39 nM and the cAMP Rel EC50, nM (in the presence of 1% HSA) is 698 nM.
Take B2: the Relative cAMP EC50 was found to be 2.99 nM and the cAMP Rel EC50 (1% HSA) was 367 nM.
Molecule B3 returned a Relative cAMP EC50 of 1.33 nM and a cAMP Rel EC50 (1% HSA) of 230 nM.
In the same order, the values of B4 are 0.73 nM and 75.8 nM.
Regarding B5, the Relative cAMP EC50 stood at 1.47 nM and the cAMP Rel EC50 (1% HSA) is 194 nM.
Molecule B6 returned a Relative cAMP EC50 of 2.96 nM and a cAMP Rel EC50 (1% HSA) of 449 nM.
Molecule B7 gave a Relative cAMP EC50 of 1.17 nM and a cAMP Rel EC50 (1% HSA) of 159 nM.
On to B8, for which the Relative cAMP EC50 worked out at 0.623 nM and the cAMP Rel EC50 (1% HSA) was found to be 64.4 nM.
Taken in the same sequence, the figures for B9 were 1.23 nM and 145 nM.
In the case of B10, the Relative cAMP EC50 was determined as 5.44 nM and the cAMP Rel EC50 (1% HSA) worked out at 619 nM.
In the same order, the values of B11 are 1.75 nM and 246 nM.

The target in a further experiment is T1, human GIP receptor (human). Briefly: cell-based or functional assay.
Regarding B1, the Relative cAMP EC50 was found to be 0.251 nM and the cAMP Rel EC50, nM (in the presence of 1% HSA) came to 97.5 nM.
B2 had a Relative cAMP EC50 of 0.182 nM and a cAMP Rel EC50 (1% HSA) of 15.6 nM.
In the same order, the values of B3 are 0.0648 nM and 7.83 nM.
In the same order, the values of B4 are 0.076 nM and 8.64 nM.
In the same order, the values of B5 are 0.0799 nM and 11.6 nM.
For B6, the Relative cAMP EC50 was 0.213 nM and the cAMP Rel EC50 (1% HSA) was found to be 34.6 nM.
For the molecule B7, the Relative cAMP EC50 amounted to 0.065 nM and the cAMP Rel EC50 (1% HSA) came to 8.73 nM.
Taken in the same sequence, the figures for B8 were 0.0515 nM and 5.86 nM.
Taken in the same sequence, the figures for B9 were 0.0592 nM and 5.79 nM.
As to B10, the Relative cAMP EC50 was determined as 0.272 nM and the cAMP Rel EC50 (1% HSA) was determined as 27.3 nM.
In the same order, the values of B11 are 0.0592 nM and 6.31 nM.

The next experiment addresses human glucagon receptor (human) (UniProt P47871). Description: cell-based or functional assay.
Take B1: the Relative cAMP EC50 was determined as 7.58 nM and the cAMP Rel EC50, nM (in the presence of 1% HSA) was found to be 1260 nM.
Take B2: the Relative cAMP EC50 is 14.8 nM and the cAMP Rel EC50 (1% HSA) stood at 1710 nM.
In the same order, the values of B3 are 3.45 nM and 506 nM.
In the same order, the values of B4 are 3.47 nM and 472 nM.
The molecule B5 came in with a Relative cAMP EC50 of 3.94 nM and a cAMP Rel EC50 (1% HSA) of 397 nM.
In the same order, the values of B6 are 14 nM and 2580 nM.
With B7, the Relative cAMP EC50 was found to be 2.75 nM and the cAMP Rel EC50 (1% HSA) came out at 337 nM.
In the same order, the values of B8 are 5.84 nM and 831 nM.
Taken in the same sequence, the figures for B9 were 4.67 nM and 550 nM.
In the same order, the values of B10 are 15.6 nM and 2010 nM.
Take B11: the Relative cAMP EC50 worked out at 4.72 nM and the cAMP Rel EC50 (1% HSA) was found to be 827 nM.
